Here are results for one molecule from patent CN110845607A (UNIV WEIFANG MEDICAL; SHANDONG KUANHEZHENG BIOMEDICINE CO …, dated 2020).

In this assay the target is 牛血清蛋白 (BSA) (bovine, UniProt P02769 25-607). Kind of assay: ELISA. In general terms: In an ELISA, binding on a coated surface is turned into a signal by an enzyme label.
牛血清蛋白 (BSA), sequence (P02769 25-607 limits assumed): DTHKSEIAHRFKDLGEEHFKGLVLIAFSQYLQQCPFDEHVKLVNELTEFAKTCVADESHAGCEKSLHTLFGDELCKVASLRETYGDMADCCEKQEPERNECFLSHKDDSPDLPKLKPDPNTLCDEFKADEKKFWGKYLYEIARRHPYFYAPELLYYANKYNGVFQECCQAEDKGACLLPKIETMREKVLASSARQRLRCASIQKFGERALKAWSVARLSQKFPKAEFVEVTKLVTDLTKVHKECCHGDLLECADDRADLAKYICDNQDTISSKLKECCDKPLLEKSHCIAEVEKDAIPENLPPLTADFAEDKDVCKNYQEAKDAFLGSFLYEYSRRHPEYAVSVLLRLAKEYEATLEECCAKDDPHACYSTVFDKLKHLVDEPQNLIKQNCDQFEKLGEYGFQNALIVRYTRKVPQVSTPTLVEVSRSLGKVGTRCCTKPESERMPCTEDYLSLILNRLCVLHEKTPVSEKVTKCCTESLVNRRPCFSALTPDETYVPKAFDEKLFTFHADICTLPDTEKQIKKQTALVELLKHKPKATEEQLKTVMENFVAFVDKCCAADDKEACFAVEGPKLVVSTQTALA

B1: F1 Fab片段 (purified Fab fragment of anti-H1N1 monoclonal antibody F1) (Fab, V domains shown)
VH: QVQLKESGDDLVKPGASVKLSCKASGYTFTNYWINWIKQRPGQGLEWIGRTAPGSGSTYYNELFKGKATLTVDTSSSTAYIQLSSLSSEDSAVYFCALSTGTGALDYWGQGTSVTVS
VL: DIVMTQSPLSLPVSLGDQASISCRSSQSLVHSNGNTYLHWYLQKPGQSPKLLIYKVSNRFSGVPDRFSGSGSGTDFTLKISRVEAEDLGVYFCSQSTHVPWTFGGGTKLEIKR
notes: also called 抗体F1Fab; 单克隆抗体F1
For B1, the binding result is reported as “no binding”.
